{"source": "patent US6849598B1", "about": "“Therapeutic compositions comprising bactericidal/permeability-increasing (BPI) protein products” (XOMA, priority 1995, dated 2005)", "molecules": {"B1": {"name": "rBPI21: expression product of DNA encoding amino acid 1 to approximately 193 or 199 of BPI holoprotein, cysteine 132 substituted with alanine (protein, UniProt P17213 32-224, looked up, variant C132A)", "chain": "VNPGVVVRISQKGLDYASQQGTAALQKELKRIKIPDYSDSFKIKHLGKGHYSFYSMDIREFQLPSSQISMVPNVGLKFSISNANIKISGKWKAQKRFLKMSGNFDLSIEGMSISADLKLGSNPTSGKPTITASSCSSHINSVHVHISKSKVGWLIQLFHKKIESALRNKMNSQVCEKVTNSVSSELQPYFQTL"}}, "experiment_in_all_cases": "Bactericidal activity in water or broth, CFU after 30 minutes and 3 hours (Example 3)", "type_in_all_cases": "cell-based", "key": {"S. aureus": {"system": "S. aureus", "protocol": "(§1) The bactericidal activity of therapeutic compositions comprising BPI protein product and heat-treated PLURONIC P103 or heat-treated PLURONIC P104, was evaluated against the S. aureus and A. baumannii clinical isolates of Example 1 and the additional organisms S. pneunoniae (Microscan® ID no. 145) and E. faecium (Microscan® ID no. 15773). Therapeutic compositions comprising 500 μg/mL rBPI21 in a 0.075% (w/v) concentration of either heat-treated PLURONIC P103 or heat-treated PLURONIC P104 were formulated by diluting a 2 mg/mL solution of “non-formulated” rBPI21 or “formulated” rBPI21, with the appropriate amounts of 0.1% heat-treated PLURONIC P103 or heat-treated PLURONIC P104 solutions. Compositions comprising 500 μg/mL non-formulated rBPI21 in water alone (without any poloxamers) and poloxamer control solutions containing only 0.1% heat-treated P103 or heat-treated P104 (and no rBPI21) were also prepared A “formulated” rBPI23 therapeutic composition containing 1 mg/mL rBPI23, 0.1% PLURONIC F68 and 0.002% TWEEN 80 was also tested for comparison.\n(§2) Sterile stock solutions of heat-treated PLURONIC P103 or heat-treated PLURONIC P104 were prepared using the following procedure: (1) making a 0.1% (w/v) solution of the poloxamer in deionized water, (2) heating the solution to a boil, (3) allowing it to cool to room temperature, (4) stirring until the PLURONIC P103 was completely solubilized, and (5) filtering the solution through a 0.22 μm Nalgene filter for sterilization.\n(§3) The S. aureus, E. faecium and A. baumannii bacteria were grown on TSA plates (Remel, Catalog #01-920, Lenexa, Kans.), and the S. pneumoniae were grown on 5% sheep blood agar plates (Remel, Catalog# 01-200, Lenexa, Kans.) for 24 hours. A bacterial stock emulsion was prepared by emulsifying bacterial colonies in sterile deionized water to approximately 2.2 to 3.8×10^8 CFU/mL as measured by a Microscan® Turbidity Meter, and diluting further by 1:10 in water. Assays for rBPI21 therapeutic compositions were conducted in 96-well flat-bottom microtiter plates (Corning, catalog# 25860-96) by adding to each well: 185 μL of TSB (Remel, catalog #08-942, Lenexa, Kans.) or sterile water for injection (Kendall McGaw); 8 μL of the bacterial emulsion; 6.3 μL of the indicated 500 μg/mL rBPI21/poloxamer therapeutic composition (or poloxamer control solution or water alone). The final concentrations of bacteria in each well were about 4 to 7×10^5 CFU/mL. Assays for the rBPI23 therapeutic composition were conducted in the same way, except 178 μL of broth or water and 13 μL of the […] rBPI23 composition were added. The well contents were mixed and the plates were incubated at 37° C. The CFUs in each well were counted at 10^−2 and 10^−4 dilutions after 30 minutes and 3 hours of incubation. Results at 30 minutes and 3 hours, respectively, are shown below in Tables 8 and 9."}, "[1]": {"system": "E. faecium (Microscan® ID no. 15773)", "protocol": "as §1, §2, §3"}, "[2]": {"system": "A. baumannii (formerly A. anitratus)", "protocol": "as §1, §2, §3"}, "[3]": {"system": "S. pneumoniae (Microscan® ID no. 145)", "protocol": "as §1, §2, §3"}, "[4]": {"conditions": "broth, Incubation for 30 minutes, Control TNTC / TNTC"}, "[5]": {"conditions": "broth, Incubation for 3 hours, Control TNTC"}, "[6]": {"conditions": "water, Incubation for 30 minutes, Control TNTC / TNTC"}, "[7]": {"conditions": "water, Incubation for 3 hours, Control TNTC"}}, "data": [{"molecule": "B1", "values": [{"measurement": "CFUs", "setting": "S. aureus; broth, Incubation for 30 minutes, Control 65 / 59", "result": "57 10000 CFUs"}, {"measurement": "CFUs", "setting": "S. aureus; [4]", "result": "TNTC"}, {"measurement": "CFUs", "setting": "S. aureus; [5]", "result": "TNTC"}, {"measurement": "CFUs", "setting": "S. aureus; water, Incubation for 30 minutes, Control 54 / 63", "result": "2 10000 CFUs"}, {"measurement": "CFUs", "setting": "S. aureus; [6]", "result": "315 100 CFUs"}, {"measurement": "CFUs", "setting": "S. aureus; [7]", "result": "12 100 CFUs"}, {"measurement": "CFUs", "setting": "[1]; broth, Incubation for 30 minutes, Control 68 / 38", "result": "89 10000 CFUs"}, {"measurement": "CFUs", "setting": "[1]; [4]", "result": "TNTC"}, {"measurement": "CFUs", "setting": "[1]; [5]", "result": "TNTC"}, {"measurement": "CFUs", "setting": "[1]; water, Incubation for 30 minutes, Control 37 / 35", "result": "1 10000 CFUs"}, {"measurement": "CFUs", "setting": "[1]; [6]", "result": "50 100 CFUs"}, {"measurement": "CFUs", "setting": "[1]; [7]", "result": "1 100 CFUs"}, {"measurement": "CFUs", "setting": "[2]; A. anitratus, broth, Incubation for 30 minutes, Control 44 / 41", "result": "24 10000 CFUs"}, {"measurement": "CFUs", "setting": "[2]; A. anitratus, broth, Incubation for 30 minutes, Control TNTC / TNTC", "result": "TNTC"}, {"measurement": "CFUs", "setting": "[2]; A. anitratus, water, Incubation for 30 minutes, Control 16 / 17", "result": "0 10000 CFUs"}, {"measurement": "CFUs", "setting": "[2]; A. anitratus, water, Incubation for 30 minutes, Control TNTC / TNTC", "result": "73 100 CFUs"}, {"measurement": "CFUs", "setting": "[2]; [5]", "result": "58 100 CFUs"}, {"measurement": "CFUs", "setting": "[2]; [7]", "result": "0 100 CFUs"}, {"measurement": "CFUs", "setting": "[3]; broth, Incubation for 30 minutes, Control 4 / 1", "result": "4 10000 CFUs"}, {"measurement": "CFUs", "setting": "[3]; broth, Incubation for 30 minutes, Control 389 / 350", "result": "290 100 CFUs"}, {"measurement": "CFUs", "setting": "[3]; broth, Incubation for 3 hours, Control 337", "result": "447 100 CFUs"}, {"measurement": "CFUs", "setting": "[3]; water, Incubation for 30 minutes, Control 1 / 0", "result": "0 10000 CFUs"}, {"measurement": "CFUs", "setting": "[3]; water, Incubation for 30 minutes, Control 75 / 47", "result": "61 100 CFUs"}, {"measurement": "CFUs", "setting": "[3]; water, Incubation for 3 hours, Control 0", "result": "0 100 CFUs"}]}]}
